Measured values as given in US20120208744A1, “ANTI-MICROBIAL AGENTS AND COMPOSITIONS AND METHODS OF PRODUCTION AND USE THEREOF” (The Penn State Research Foundation, priority 2011, published 2012).

Columns and labels:
[1] = system: E. coli; assay: Spot titer assay (sensitivity to TonB-dependent colicins and bacteriophage); format: cell-based, Escherichia coli; conditions: three platings
Method: Activity assays: Spot titer assays were performed. Initial rates of [^55Fe]-ferrichrome uptake were determined.
Spot titers, which are capable of detecting very low levels of TonB activity, measure sensitivity to colicins and bacteriophage that enter and subsequently kill E. coli via the TonB system. […] Consistent with their insensitivity to phage and colicins, the other 13 deletion variants supported no iron transport.

[2] = system: ferrichrome-mediated iron transport; assay: [55Fe]-ferrichrome uptake, ExbD cys substitutions, with or without CuoP treatment; format: cell-based, Escherichia coli; conditions: for activity: initial rate of ferrichrome-mediated iron transport relative to wild-type plasmid-encoded ExbD: non-reducing conditions, substitution expressed to native ExbD levels, strain RA1045
Method: Since CuoP treatment catalyzed almost 100% dimer formation for some of the cys substitutions, attempts were made to determine activity of the dimeric form. […] The amount of CuoP was reduced 10-fold to 0.03 mM and cells had to be suspended in fully supplemented M9 medium as described in Experimental Procedures.
Activity assays. Initial rates of [^55Fe]-ferrichrome uptake were determined. For assays where cultures were treated with copper-(1,10-phenanthroline)3, harvested cells were pelleted, resuspended in 1×M9 supplemented as described above (no sodium propionate added), and treated with an equal volume 0.06 mM CuoP ([final] 0.03 mM) or 0.5 mM sodium phosphate buffer, pH 7.4 (buffer only) for 5 min, at 37° C. with aeration. Cells were pelleted, and the standard iron transport protocol was followed starting with resuspension in the assay medium.
In all assays the CuoP solution was removed and assays carried out in identical media, but the medium present during the 5 min CuoP treatment was important and differentially affected activity of a wild-type strain.

[3] = strain RA1017 (ΔExbBD, ΔTolQRA)
[4] = strain RA1017/pKP724 (ExbB, ExbDΔ132-141)
[5] = strain RA1017/pKP752 (ExbB, ExbDΔ102-111)
[6] = strain RA1017/pKP753 (ExbB, ExbDΔ92-101)
[7] = strain RA1017/pKP754 (ExbB, ExbDΔ82-91)
[8] = strain RA1017/pKP755 (ExbB, ExbDΔ72-81)
[9] = strain RA1017/pKP756 (ExbB, ExbDΔ62-71)
[10] = strain RA1017/pKP757 (ExbB, ExbDΔ52-61)
[11] = strain RA1017/pKP758 (ExbB, ExbDΔ32-41)
[12] = strain RA1017/pKP759 (ExbB, ExbDΔ22-31)
[13] = strain RA1017/pKP760 (ExbB, ExbDΔ12-21)
[14] = strain RA1017/pKP762 (ExbB, ExbDΔ42-51)
[15] = strain RA1017/pKP763 (ExbB, ExbDΔ112-121)
[16] = strain RA1017/pKP764 (ExbB, ExbDΔ122-131)

B1: Colicin M: TonB-dependent colicin; standard colicin preparation used in spot titers (protein, UniProt P05820 1-271, looked up)
Colicin-M: METLTVHAPSPSTNLPSYGNGAFSLSAPHVPGAGPLLVQVVYSFFQSPNMCLQALTQLEDYIKKHGASNPLTLQIISTNIGYFCNADRNLVLHPGISVYDAYHFAKPAPSQYDYRSMNMKQMSGNVTTPIVALAHYLWGNGAERSVNIANIGLKISPMKINQIKDIIKSGVVGTFPVSTKFTHATGDYNVITGAYLGNITLKTEGTLTISANGSWTYNGVVRSYDDKYDFNASTHRGIIGESLTRLGAMFSGKEYQILLPGEIHIKESGKR
T, T, T: Susceptibility: highest five-fold dilution of a standard colicin preparation that provided an evident zone of clearing on a cell lawn [1, 3] | Susceptibility: highest five-fold dilution of a standard colicin preparation that provided an evident zone of clearing on a cell lawn [1, 4] | Susceptibility: highest five-fold dilution of a standard colicin preparation that provided an evident zone of clearing on a cell lawn [1, 5] | Susceptibility: highest five-fold dilution of a standard colicin preparation that provided an evident zone of clearing on a cell lawn [1, 6] | Susceptibility: highest five-fold dilution of a standard colicin preparation that provided an evident zone of clearing on a cell lawn [1, 7] | Susceptibility: highest five-fold dilution of a standard colicin preparation that provided an evident zone of clearing on a cell lawn [1, 8] | Susceptibility: highest five-fold dilution of a standard colicin preparation that provided an evident zone of clearing on a cell lawn [1, 9] | Susceptibility: highest five-fold dilution of a standard colicin preparation that provided an evident zone of clearing on a cell lawn [1, 10] | Susceptibility: highest five-fold dilution of a standard colicin preparation that provided an evident zone of clearing on a cell lawn [1, 11] | Susceptibility: highest five-fold dilution of a standard colicin preparation that provided an evident zone of clearing on a cell lawn [1, 12] | Susceptibility: highest five-fold dilution of a standard colicin preparation that provided an evident zone of clearing on a cell lawn [1, 13] | Susceptibility: highest five-fold dilution of a standard colicin preparation that provided an evident zone of clearing on a cell lawn [1, 14] | Susceptibility: highest five-fold dilution of a standard colicin preparation that provided an evident zone of clearing on a cell lawn [1, 15] | Susceptibility: highest five-fold dilution of a standard colicin preparation that provided an evident zone of clearing on a cell lawn [1, 16]

B2: Colicin B: TonB-dependent colicin; toxin that enters and kills E. coli via the TonB system; standard colicin preparation (protein, UniProt P05819 2-511, looked up)
Colicin-B: SDNEGSVPTEGIDYGDTMVVWPSTGRIPGGDVKPGGSSGLAPSMPPGWGDYSPQGIALVQSVLFPGIIRRIILDKELEEGDWSGWSVSVHSPWGNEKVSAARTVLENGLRGGLPEPSRPAAVSFARLEPASGNEQKIIRLMVTQQLEQVTDIPASQLPAAGNNVPVKYRLTDLMQNGTQYMAIIGGIPMTVPVVDAVPVPDRSRPGTNIKDVYSAPVSPNLPDLVLSVGQMNTPVRSNPEIQEDGVISETGNYVEAGYTMSSNNHDVIVRFPEGSGVSPLYISAVEILDSNSLSQRQEAENNAKDDFRVKKEQENDEKTVLTKTSEVIISVGDKVGEYLGDKYKALSREIAENINNFQGKTIRSYDDAMSSINKLMANPSLKINATDKEAIVNAWKAFNAEDMGNKFAALGKTFKAADYAIKANNIREKSIEGYQTGNWGPLMLEVESWVISGMASAVALSLFSLTLGSALIAFGLSATVVGFVGVVIAGAIGAFIDDKFVDELNHKIIK
T, T, T: Susceptibility: highest five-fold dilution of a standard colicin preparation that provided an evident zone of clearing on a cell lawn [1, 3] | Susceptibility: highest five-fold dilution of a standard colicin preparation that provided an evident zone of clearing on a cell lawn [1, 4] | Susceptibility: highest five-fold dilution of a standard colicin preparation that provided an evident zone of clearing on a cell lawn [1, 5] | Susceptibility: highest five-fold dilution of a standard colicin preparation that provided an evident zone of clearing on a cell lawn [1, 6] | Susceptibility: highest five-fold dilution of a standard colicin preparation that provided an evident zone of clearing on a cell lawn [1, 7] | Susceptibility: highest five-fold dilution of a standard colicin preparation that provided an evident zone of clearing on a cell lawn [1, 8] | Susceptibility: highest five-fold dilution of a standard colicin preparation that provided an evident zone of clearing on a cell lawn [1, 9] | Susceptibility: highest five-fold dilution of a standard colicin preparation that provided an evident zone of clearing on a cell lawn [1, 10] | Susceptibility: highest five-fold dilution of a standard colicin preparation that provided an evident zone of clearing on a cell lawn [1, 11] | Susceptibility: highest five-fold dilution of a standard colicin preparation that provided an evident zone of clearing on a cell lawn [1, 12] | Susceptibility: highest five-fold dilution of a standard colicin preparation that provided an evident zone of clearing on a cell lawn [1, 13] | Susceptibility: highest five-fold dilution of a standard colicin preparation that provided an evident zone of clearing on a cell lawn [1, 14] | Susceptibility: highest five-fold dilution of a standard colicin preparation that provided an evident zone of clearing on a cell lawn [1, 15] | Susceptibility: highest five-fold dilution of a standard colicin preparation that provided an evident zone of clearing on a cell lawn [1, 16]

B3: Colicin Ia: TonB-dependent colicin; standard colicin preparation used in spot titers (protein, UniProt P06716 1-626, looked up)
Colicin-Ia: MSDPVRITNPGAESLGYDSDGHEIMAVDIYVNPPRVDVFHGTPPAWSSFGNKTIWGGNEWVDDSPTRSDIEKRDKEITAYKNTLSAQQKENENKRTEAGKRLSAAIAAREKDENTLKTLRAGNADAADITRQEFRLLQAELREYGFRTEIAGYDALRLHTESRMLFADADSLRISPREARSLIEQAEKRQKDAQNADKKAADMLAEYERRKGILDTRLSELEKNGGAALAVLDAQQARLLGQQTRNDRAISEARNKLSSVTESLNTARNALTRAEQQLTQQKNTPDGKTIVSPEKFPGRSSTNHSIVVSGDPRFAGTIKITTSAVIDNRANLNYLLSHSGLDYKRNILNDRNPVVTEDVEGDKKIYNAEVAEWDKLRQRLLDARNKITSAESAVNSARNNLSARTNEQKHANDALNALLKEKENIRNQLSGINQKIAEEKRKQDELKATKDAINFTTEFLKSVSEKYGAKAEQLAREMAGQAKGKKIRNVEEALKTYEKYRADINKKINAKDRAAIAAALESVKLSDISSNLNRFSRGLGYAGKFTSLADWITEFGKAVRTENWRPLFVKTETIIAGNAATALVALVFSILTGSALGIIGYGLLMAVTGALIDESLVEKANKFWGI
T, T, T: Susceptibility: highest five-fold dilution of a standard colicin preparation that provided an evident zone of clearing on a cell lawn [1, 3] | Susceptibility: highest five-fold dilution of a standard colicin preparation that provided an evident zone of clearing on a cell lawn [1, 4] | Susceptibility: highest five-fold dilution of a standard colicin preparation that provided an evident zone of clearing on a cell lawn [1, 5] | Susceptibility: highest five-fold dilution of a standard colicin preparation that provided an evident zone of clearing on a cell lawn [1, 6] | Susceptibility: highest five-fold dilution of a standard colicin preparation that provided an evident zone of clearing on a cell lawn [1, 7] | Susceptibility: highest five-fold dilution of a standard colicin preparation that provided an evident zone of clearing on a cell lawn [1, 8] | Susceptibility: highest five-fold dilution of a standard colicin preparation that provided an evident zone of clearing on a cell lawn [1, 9] | Susceptibility: highest five-fold dilution of a standard colicin preparation that provided an evident zone of clearing on a cell lawn [1, 10] | Susceptibility: highest five-fold dilution of a standard colicin preparation that provided an evident zone of clearing on a cell lawn [1, 11] | Susceptibility: highest five-fold dilution of a standard colicin preparation that provided an evident zone of clearing on a cell lawn [1, 12] | Susceptibility: highest five-fold dilution of a standard colicin preparation that provided an evident zone of clearing on a cell lawn [1, 13] | Susceptibility: highest five-fold dilution of a standard colicin preparation that provided an evident zone of clearing on a cell lawn [1, 14] | Susceptibility: highest five-fold dilution of a standard colicin preparation that provided an evident zone of clearing on a cell lawn [1, 15] | Susceptibility: highest five-fold dilution of a standard colicin preparation that provided an evident zone of clearing on a cell lawn [1, 16]

B4: ExbD I102C: ExbD cysteine substitution I102C (pKP1010) (protein)
chain: MAMHLNENLDDNGEMHDINVTPFIDVMLVLLIIFMVAAPLAIVDVKVNLPASTSTPQPRPEKPVYLSVKADNSMFIGNDPVTDETMITALNALTEGKKDITCFFRADKTVDYETLMKVMDTLHQAGYLKIGLVGEETAKAK
80%: activity: initial rate of ferrichrome-mediated iron transport relative to wild-type plasmid-encoded ExbD [2]

B5: ExbD G96C: ExbD cysteine substitution G96C (pKP1004) (protein)
chain: MAMHLNENLDDNGEMHDINVTPFIDVMLVLLIIFMVAAPLAIVDVKVNLPASTSTPQPRPEKPVYLSVKADNSMFIGNDPVTDETMITALNALTECKKDITIFFRADKTVDYETLMKVMDTLHQAGYLKIGLVGEETAKAK
85%: activity: initial rate of ferrichrome-mediated iron transport relative to wild-type plasmid-encoded ExbD [2]

B6: ExbD K108C: ExbD cysteine substitution K108C (pKP1016) (protein)
chain: MAMHLNENLDDNGEMHDINVTPFIDVMLVLLIIFMVAAPLAIVDVKVNLPASTSTPQPRPEKPVYLSVKADNSMFIGNDPVTDETMITALNALTEGKKDITIFFRADCTVDYETLMKVMDTLHQAGYLKIGLVGEETAKAK
~110%: activity: initial rate of ferrichrome-mediated iron transport relative to wild-type plasmid-encoded ExbD [2]
at least 70%: activity: iron transport relative to wild-type ExbD ([2]; CuoP-treated (0.03 mM, 5 min, supplemented M9))
110%: activity: iron transport relative to wild-type ExbD ([2]; overexpressed ExbD cys substitution)
